Data as given in US20230242662A1 (BIOATLA, published 2023).

B1: Benchmark (BM) BA-133-00-01 (antibody, V domains shown)
VH: QVQLQESGPGLVKPSETLSLTCTVSGGSVSSYDISWIRQPPGKGLEWIGVIWTDGGTNYNSAFMSRVTISVDTSKNQFSLKLSSVTAADTAVYYCARVYDGYPWFAYWGQGTLVTVSS
VL: DIQMTQSPSSLSASVGDRVTITCRASQGISNYLNWYQQKPGKAPKLLIYYTSSLHSGVPSRFSGSGSGTDFTLTISSLQPEDFATYYCQQYIKLPWTFGGGTKLEIKR
notes: the killing assays used the ADC form; Conjugation site and payload are not described; also called BM (bench mark)
B2: BAP133-2-03-03-SL (antibody, V domains shown)
VH: EVQLVESGGGLVQPGGSLRLSCAASGGSVSSYDISWIRQSPSRGLEWLGVIWTDGGTNYNSAFMSRFTISRDDSKNTAYLQMNSLKTEDTAVYYCERVYDGYPWFAYWGQGTLVTVSS
VL: AIQLTQSPSSLSASVGDRVTITCRASQGISNYLNWYLQKPGQSPQLLIYYTSSLHSGVPDRFSGSGSGTDFTLKISRVEAEDVGVYYCQQYIKLPWTFGQGTKVEIK
notes: the killing assays used the ADC form; also called BAP133-02-03-03-SL; CPE hit BAP133-2-03-03-SL
B3: BA-133-04-01 (antibody, V domains shown)
VH: EVQLVESGGGLVQPGGSLRLSCAASGGSVSSYDISWIRQSPSRGLEWLGVIWTDGGTNYNSAFMSRFTISRDDSKNTAYLQMNSLKTEDTAVYYCERVYDGYPWFAYWGQGTLVTVSS
VL: AIQLTQSPSSLSASVGDRVTITCRASQWISNYLNWYLQKPGQSPQLLIYYTSSLHSGVPDRFSGSGSGTDFTLKISRVEAEDVGVYYCQQYIKLPWTFGQGTKVEIK
notes: also called CPE hit BA133-04-01
B4: BA-133-04-02 (antibody, V domains shown)
VH: EVQLVESGGGLVQPGGSLRLSCAASGGSVSSYDISWIRQSPSRGLEWLGVIWTDGGTNYNSAFMSRFTISRDDSKNTAYLQMNSLKTEDTAVYYCERVYDGYPWFAYWGQGTLVTVSS
VL: AIQLTQSPSSLSASVGDRVTITCRASQGIANYLNWYLQKPGQSPQLLIYYTSSLHSGVPDRFSGSGSGTDFTLKISRVEAEDVGVYYCQQYIKLPWTFGQGTKVEIK
notes: also called CPE hit BA133-04-02

How the values were obtained:
cynoCD46-His [1] = target: T1, cynoCD46-His (cynomolgus, UniProt A0A2K5WCL8 35-328); test: SPR, cynoCD46-His immobilised, antibody as analyte, pH 7.4
T1 construct: extracellular domain; Immobilised by amine coupling on the SPR chip; not shown: His tag
T1 sequence: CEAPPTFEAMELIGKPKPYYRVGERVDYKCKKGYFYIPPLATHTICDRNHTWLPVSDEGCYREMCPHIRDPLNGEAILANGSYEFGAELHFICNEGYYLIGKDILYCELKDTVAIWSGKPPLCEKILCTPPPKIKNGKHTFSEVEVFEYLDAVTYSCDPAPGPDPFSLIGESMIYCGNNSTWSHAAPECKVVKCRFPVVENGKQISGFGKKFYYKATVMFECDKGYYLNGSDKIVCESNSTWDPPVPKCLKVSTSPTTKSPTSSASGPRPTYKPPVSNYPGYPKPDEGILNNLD
Description: (§1) Binding kinetics of anti-CD46 antibodies were measured by surface plasmon resonance on a SPR2/4 instrument (Sierra Sensors, Hamburg, Germany) and flat amine sensor chips. The SPR sensor contained four flow cells (FC1-FC4), each of which can be addressed individually or in groups. huCD46-His was immobilized in FC2, and cynoCD46-His was immobilized in FC4. No protein was immobilized in FC1 and FC3 which were used as control surfaces for FC2 and FC4, respectively.
(§2) All injections were done at a flow rate of 25 μL/min and 25° C. The sensor surface was activated with 1-ethyl-3-(3-dimethylaminopropyl)-carbodiimide (EDC) and N-hydroxysuccinimide (NHS) (200 mM/50 mM) for 480 seconds. Human CD46-His (2 μg/mL in 10 mM NaAc, pH5.0) was injected for 480s and the surface was inactivated by injecting 1M ethanolamine-HCl for 480s. cynoCD46-His was immobilized using the same conditions as described for huCD46-His, except that it was diluted into 10 mM NaAc buffer pH4.5. The control surface was activated and deactivated using the same conditions, but without injecting protein. PBST buffer (PBS pH7.4 with 0.05% TWEEN20™) was used as running buffer for the surface preparation. The running solution was switched to PBST with 30 mM sodium bicarbonate with the pH adjusted as indicated in the figures before the analyte injections. The instrument was equilibrated with the running solution for one hour before the first analyte injection.
(§3) The off-rate was measured for 360 s. The chip surface was regenerated after each cycle of interaction by injecting 6 μL of 10 mM glycine (pH 2.0). Flow cells 1 and 3 without immobilized protein were used as control surfaces for reference subtraction.

[2] = target: T2, cyno CD46 expressed on 293 cells (cynomolgus); test: FACS, 293 cells expressing cyno CD46, pH 6.0
T2 construct: whole, on cells; The construct on the cells is not described; also called HEK 293 cells expressing cyno CD46
Description: (§4) A similar FACS analysis was also carried out using 293 cells expressing cyno CD46. […] The EC50 values for binding to the 293 cells expressing cyno CD46 by the conditionally active anti-CD46 antibodies are summarized in Table 6.

cynoCD46-His [3] = target: T1, cynoCD46-His; test: SPR, cynoCD46-His immobilised, antibody as analyte, pH 6.0
Description: as §1, §2, §3

huCD46-His [4] = target: T3, huCD46-His (human, UniProt P15529 35-343); test: SPR, huCD46-His immobilised, antibody as analyte, pH 6.0
T3 construct: extracellular domain; Immobilised by amine coupling on the SPR chip; It may be the same protein as the ELISA antigen; also called Human CD46-His; human CD46; not shown: His tag
T3 sequence (looked up): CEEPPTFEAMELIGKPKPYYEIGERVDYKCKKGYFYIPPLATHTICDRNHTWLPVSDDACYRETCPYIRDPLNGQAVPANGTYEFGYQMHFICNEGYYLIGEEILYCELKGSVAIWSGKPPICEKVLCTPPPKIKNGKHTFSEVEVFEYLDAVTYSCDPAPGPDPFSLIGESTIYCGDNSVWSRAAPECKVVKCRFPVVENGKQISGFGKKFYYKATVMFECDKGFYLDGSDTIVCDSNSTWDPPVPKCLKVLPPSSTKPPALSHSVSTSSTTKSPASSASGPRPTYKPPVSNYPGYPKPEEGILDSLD
Description: as §1, §2, §3

[5] = target: T2, cyno CD46 expressed on 293 cells; test: FACS, 293 cells expressing cyno CD46, pH 7.4
Description: as §4

huCD46-His [6] = target: T3, huCD46-His; test: SPR, huCD46-His immobilised, antibody as analyte, pH 7.4
Description: as §1, §2, §3

cynoCD46-His [7] = target: T1, cynoCD46-His; test: SPR, cynoCD46-His immobilised, antibody as analyte, pH 6.5
Description: as §1, §2, §3

huCD46-His [8] = target: T3, huCD46-His; test: SPR, huCD46-His immobilised, antibody as analyte, pH 6.5
Description: as §1, §2, §3

[9] = target: T4, recombinant cyno CD46 antigen (cynomolgus, UniProt A0A2K5WCL8 35-328); test: ELISA, coated cyno CD46; EC50 at pH 7.4 over EC50 at pH 6.0
T4 construct: extracellular domain; Plate-coated antigen of the ELISA; also called cynomolgus CD46 extracellular domain
T4 sequence: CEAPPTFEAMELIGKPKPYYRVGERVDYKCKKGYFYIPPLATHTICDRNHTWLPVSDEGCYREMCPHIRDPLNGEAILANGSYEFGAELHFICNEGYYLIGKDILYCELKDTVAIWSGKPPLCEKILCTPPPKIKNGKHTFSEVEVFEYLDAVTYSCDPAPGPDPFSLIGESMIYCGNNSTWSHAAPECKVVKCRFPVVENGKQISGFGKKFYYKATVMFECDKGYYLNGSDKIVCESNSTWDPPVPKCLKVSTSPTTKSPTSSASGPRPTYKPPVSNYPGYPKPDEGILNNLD
Description: The binding activities of conditionally active anti-CD46 antibodies to cyno CD46 were measured by ELISA and are shown in FIGS. 3-4. The EC50 values for binding to the cyno CD46 at pH 6.0 and pH 7.4 for the conditionally active anti-CD46 antibodies are summarized in Table 2.
[…] Cover with sealing film and place the plate onto a plate shaker set to 50 rpm for 60 minutes at room temperature. [0351] 6) Decant plates and tap out residual liquid on a stack of paper towels. [0352] 7) Serially dilute test articles in 3-fold dilutions starting at 3000 ng/mL in pH 6.0 or pH 7.4 ELISA incubation buffer. [0353] 8) Add 100 μL/well of diluted test articles to the plates [0354] 9) Cover with sealing film and place the plates onto a plate shaker set to 50 rpm for 60 minutes at room temperature. […] 10) Decant plates and tap out residual liquid on a stack of paper towels. [0356] 11) Wash wells three times by dispensing 200 μL of pH 6.0 or pH 7.4 ELISA wash buffer to the wells and completely aspirate the contents. [0357] 12) Dilute the HRP secondary antibody at 1:2500 in pH 6.0 or pH 7.4 ELISA incubation buffer. [0358] 13) Add 100 μL HRP secondary antibody diluted in pH 6.0 or pH 7.4 ELISA incubation buffer to each well [0359] 14) Cover with sealing film and place the plates onto a plate shaker set to 50 rpm for 60 minutes at room temperature. [0360] 15) Decant plates and tap out residual liquid on a stack of paper towels. [0361] 16) Wash wells three times by dispensing 200 μL of pH 6.0 or pH 7.4 ELISA wash buffer to the wells and completely aspirate the contents. [0362] 17) Dispense 50 μL per well of the TMB substrate solution into all wells of the plates. Incubate at room temperature for about 2 minutes 15 seconds or 2 minutes. […] 18) Add 50 μL per well of 1N HCl into all wells of the plates. Read plates at 450 nm using PerkinElmer, EnSpire 2300 Multilabel Reader.

[10] = target: T2, cyno CD46 expressed on 293 cells; test: FACS, 293 cells expressing cyno CD46; EC50 at pH 7.4 over EC50 at pH 6.0
Description: as §4

| Binder | Kd (cynoCD46-His [1]) [nM] | koff (cynoCD46-His [1]) [s⁻¹] | kon (cynoCD46-His [1]) [M⁻¹ s⁻¹] | EC50 [2] [µg/mL] | Kd (cynoCD46-His [3]) [nM] | koff (cynoCD46-His [3]) [s⁻¹] | kon (cynoCD46-His [3]) [M⁻¹ s⁻¹] | Kd (huCD46-His [4]) [nM] | koff (huCD46-His [4]) [s⁻¹] | kon (huCD46-His [4]) [M⁻¹ s⁻¹] | EC50 [5] [µg/mL] | Kd (huCD46-His [6]) [nM] | koff (huCD46-His [6]) [s⁻¹] | kon (huCD46-His [6]) [M⁻¹ s⁻¹] | Kd (cynoCD46-His [7]) [nM] | koff (cynoCD46-His [7]) [s⁻¹] | kon (cynoCD46-His [7]) [M⁻¹ s⁻¹] | Kd (huCD46-His [8]) [nM] | koff (huCD46-His [8]) [s⁻¹] | kon (huCD46-His [8]) [M⁻¹ s⁻¹] | further results |
| --- | --- | --- | --- | --- | --- | --- | --- | --- | --- | --- | --- | --- | --- | --- | --- | --- | --- | --- | --- | --- | --- |
| B1 | 0.905 | 0.0011 | 1.21e+06 | 0.0336 | 0.795 | 0.00115 | 1.45e+06 | 2.32 | 0.00158 | 682000 | 0.0493 | 2.13 | 0.00119 | 555000 | 0.778 | 0.00117 | 1.51e+06 | 2.15 | 0.00133 | 621000 | ratio (ph 7.4/pH 6.0) [9]: 1.33; Ratio (pH 7.4/6.0) [10]: 1.5 |
| B2 | 5.47 | 0.00242 | 442000 | 0.104 | 2.55 | 0.00255 | 1e+06 | 2.36 | 0.000915 | 388000 | 1.15 | 0.89 | 0.000778 | 874000 | 2.33 | 0.00198 | 849000 | 1.29 | 0.000736 | 571000 | ratio (ph 7.4/pH 6.0) [9]: 11; Ratio (pH 7.4/6.0) [10]: 11 |
| B3 | 1.29 | 0.000893 | 690000 | 0.114 | 0.465 | 0.000757 | 1.63e+06 | 0.991 | 0.00113 | 1.14e+06 | 0.958 | 3.99 | 0.00154 | 385000 | 0.558 | 0.000662 | 1.19e+06 | 1.77 | 0.00123 | 696000 | ratio (ph 7.4/pH 6.0) [9]: 9.2; Ratio (pH 7.4/6.0) [10]: 8.4 |
| B4 | 1.06 | 0.000904 | 852000 | 0.132 | 0.519 | 0.000835 | 1.61e+06 | 2.33 | 0.00143 | 611000 | 1.37 | 4.17 | 0.00174 | 417000 | 0.683 | 0.000943 | 1.38e+06 | 2.31 | 0.00127 | 547000 | ratio (ph 7.4/pH 6.0) [9]: 9; Ratio (pH 7.4/6.0) [10]: 10.4 |
